Measurements reported in US6849712B1, “Peptides with β1 integrin subunit dependent cell adhesion modulating activity” (Regents of the University of Minnesota, priority 1998, dated 2005).
“Also recorded” adds a separate entry of the source. Where no end group is shown, it is not given here. [ ]: non-standard residue; d: D form.

Columns and labels:
α4β1 integrin = α4β1 integrin (Homo sapiens, UniProt P05556+P13612); experiment: Inhibition of α4β1 dependent adhesion of 8A2 stimulated Ramos cells to IIICS-GST; assay type: cell-based; parameters: endogenous in cells; host or cells: Ramos cells; details: Ramos cells activated with mAb 8A2, preincubated with peptide, result in words
Text: IIICS-GST is recombinantly produced fusion protein which contains a fragment from the type III CS region (“IIICS”) of plasma fibronectin fused to glutathione-S-transferase (“GST”). The fibronectin fragment corresponds to fibronectin amino acid residues 1961 to 2039 (sequence numbering for fibronectin as designated in U.S. Pat. No. 4,839,464) and includes the […] (SEQ ID NO:46) amino acid sequence (“CS1”; fibronectin residues 1961-1985). […] In the assay, a 96-well plate was coated with the substrate IIICS-GST. Ramos cells stimulated with the β1 activating monoclonal antibody 8A2 (“Ab 8A2”) were preincubated with one of the peptides to be evaluated for their ability to adhere to IIICS-GST.
The fusion protein can be constructed by first using PCR primers to amplify the coding sequence for residues 1961-2039 of plama fibronectin. The PCR product can be introduced into a suitable bacterial expression vector in frame with the gene for GST. The resulting vector can be transformed and expressed in a suitable host cell, such as E Coli, to produce the fusion protein. If desired, the fusion protein can be purified using a glutathione column.
A 96-well plate was coated in triplicate with […] of IIICS-GST diluted to […] in PBS containing 1 mM CaCl2, MgCl2 (“PBS/cations”) and incubated overnight at 37° C. The IIICS-GST solution was removed and the wells were blocked with 150 μ/well of PBS/cations containing 0.3% BSA for 1-2 hours at 37° C. During the assay each well contained 100 μl of Ramos cells (10,000 cells/well) with or without peptide. Ramos cells were washed 3 times in adhesion media (DMEM without phenol red containing 20 mM HEPES and 3 mg/ml BSA). Cells were counted and resuspended at 200,000 cells/ml. Concentrated Ramos cells were labeled for 20 minutes at 37° C. with 50 μg of the fluorescent label BCECF resuspended in 30 μl of dimethylsulfoxide (“DMSO”). The labeled cells were centrifuged and resuspended in adhesion media at a concentration of 200,000 cells/ml. The cells were activated with the activating Ab 8A2 at a concentration of 2 μg/ml purified IgG or 1:1000 culture supernatant.
While the cells were being labeled, inhibiting peptide dilutions were prepared. Lyophilized peptides were weighed and resuspended in adhesion media at a stock concentration of twice the maximal inhibitory concentration. If a peptide was difficult to get into solution, it was initially resuspended in 30 μl of DMSO. If a peptide needed to be suspended in DMSO, all of the eptides in that particular experiment (including the controls) were suspended in 30 μl of DMSO. […] The dose-dependent dilutions of peptides were prepared using adhesion media to dilute the stock peptide. Labeled cells were mixed with peptide dilutions for 5 minutes at 37° C. at a final concentration of 100,000 cells/ml and appropriate final peptide concentrations.
The blocking solution was removed from the 96-well plate and the cell/peptide mixture is added at 100 μl/well (10,000 cells/well) and incubated for 30 minutes at 37° C. An aliquot of standard cells/peptide (100 μl) was placed at 37° C. for quantitating adhesion. Using aspiration, non-adherent cells were removed from the plate. The standard cells were centrifuged and resuspended in […] of adhesion media. The standard cells were added to empty wells at 100, 80, 60, 40, 20 and 0 μl /well representing 100%, 80%, 60%, 40%, 20% and 0% adhesion, respectively. The plate fluorescence was read at excitation 485 and emission 530. Cell adhesion was represented as percent input cells remaining adherent and was determined by a standard curve of the fluorescence obtained with the standard cells. The experimental fluorescence readings were extrapolated from the standard curve to obtain percent adhesion.

[1] = system: peripheral blood mononuclear cells and spleen cells; details: reported, Wahl et al.; cited from earlier work
α5β1 integrin [2] = target: T1, α5β1 integrin (Homo sapiens, UniProt P05556+P08648); experiment: Inhibition of α5β1 integrin dependent Mn+2 stimulated adhesion of K562 cells to fibronectin (FN); assay type: cell-based; details: for inhibition of K562 adhesion to FN at the maximal concentration tested: 0.84 mM peptide, K562 cells stimulated with 1 mM MnCl2
T1 construct: erythroleukemic cell line K562, which expresses α5β1 but not α4β1 integrin; endogenous in cells; host or cells: K562 cells
Protocol: The cell adhesion assay was carried out as described above. […] Each data point represents the mean of triplicate determinations and the error bars represent the standard deviation of the mean. The solid black line represents adhesion to the negative control substrate, BSA.

α2β1 and α3β1 integrin = experiment: Inhibition of α2β1, α3β1 integrin dependent human melanoma M14#5 cell adhesion to laminin and type IV collagen; assay type: cell-based; details: 0.5 mg/ml peptide (0.42 mM), 30 minutes
Protocol: An experiment was conducted to examine the ability of FN-C/H V+Y (SEQ ID NO:1) to inhibit α2β1, α3β1 integrin dependent cell adhesion using an assay based on human melanoma cells (M14#5).
Laminin, type IV collagen and BSA were coated overnight in a 96 well microtiter plate at 10 μg/ml and blocked with 0.3% BSA. M14#5 cells were preincubated with 0.5 mg/ml of peptide (equivalent to 0.42 mM FN-C/H V and scrambled FN-C/H V and 0.17 mM CSI) and allowed to adhere to substrates for 30 minutes.

α5β1 integrin [3] = target: α5β1 integrin (UniProt P08648 42-1049; P05556 21-798); experiment: cell-based or functional assay
Sequence of α5β1 integrin (UniProt P08648 42-1049; P05556 21-798) (P08648 42-1049, chain 1 of 2): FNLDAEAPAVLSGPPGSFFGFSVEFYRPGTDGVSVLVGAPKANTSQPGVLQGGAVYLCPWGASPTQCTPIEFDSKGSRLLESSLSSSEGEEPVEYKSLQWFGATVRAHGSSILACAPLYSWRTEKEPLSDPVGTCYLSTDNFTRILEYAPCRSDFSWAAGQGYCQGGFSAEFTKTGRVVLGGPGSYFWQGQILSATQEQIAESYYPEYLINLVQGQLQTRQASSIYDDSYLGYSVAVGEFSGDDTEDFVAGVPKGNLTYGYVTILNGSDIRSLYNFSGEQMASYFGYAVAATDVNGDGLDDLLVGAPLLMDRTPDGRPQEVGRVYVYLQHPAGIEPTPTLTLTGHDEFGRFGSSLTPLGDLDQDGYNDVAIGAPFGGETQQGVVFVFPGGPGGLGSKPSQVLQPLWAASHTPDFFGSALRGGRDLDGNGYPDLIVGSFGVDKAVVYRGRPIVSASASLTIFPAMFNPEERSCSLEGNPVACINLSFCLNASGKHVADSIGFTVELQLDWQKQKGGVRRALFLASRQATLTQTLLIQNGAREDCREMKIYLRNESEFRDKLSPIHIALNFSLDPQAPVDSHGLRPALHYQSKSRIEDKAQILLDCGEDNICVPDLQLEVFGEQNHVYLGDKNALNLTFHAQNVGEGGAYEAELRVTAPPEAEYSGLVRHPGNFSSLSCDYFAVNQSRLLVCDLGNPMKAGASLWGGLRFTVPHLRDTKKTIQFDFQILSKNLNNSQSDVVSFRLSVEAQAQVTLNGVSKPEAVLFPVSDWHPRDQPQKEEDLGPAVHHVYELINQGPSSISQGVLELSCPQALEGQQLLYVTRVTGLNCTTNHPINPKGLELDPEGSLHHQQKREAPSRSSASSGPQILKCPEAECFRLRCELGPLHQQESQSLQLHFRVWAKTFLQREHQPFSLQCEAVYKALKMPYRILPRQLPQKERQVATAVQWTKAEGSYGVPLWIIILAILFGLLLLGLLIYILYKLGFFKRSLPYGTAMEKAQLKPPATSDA
Sequence of α5β1 integrin (UniProt P08648 42-1049; P05556 21-798) (P05556 21-798, chain 2 of 2): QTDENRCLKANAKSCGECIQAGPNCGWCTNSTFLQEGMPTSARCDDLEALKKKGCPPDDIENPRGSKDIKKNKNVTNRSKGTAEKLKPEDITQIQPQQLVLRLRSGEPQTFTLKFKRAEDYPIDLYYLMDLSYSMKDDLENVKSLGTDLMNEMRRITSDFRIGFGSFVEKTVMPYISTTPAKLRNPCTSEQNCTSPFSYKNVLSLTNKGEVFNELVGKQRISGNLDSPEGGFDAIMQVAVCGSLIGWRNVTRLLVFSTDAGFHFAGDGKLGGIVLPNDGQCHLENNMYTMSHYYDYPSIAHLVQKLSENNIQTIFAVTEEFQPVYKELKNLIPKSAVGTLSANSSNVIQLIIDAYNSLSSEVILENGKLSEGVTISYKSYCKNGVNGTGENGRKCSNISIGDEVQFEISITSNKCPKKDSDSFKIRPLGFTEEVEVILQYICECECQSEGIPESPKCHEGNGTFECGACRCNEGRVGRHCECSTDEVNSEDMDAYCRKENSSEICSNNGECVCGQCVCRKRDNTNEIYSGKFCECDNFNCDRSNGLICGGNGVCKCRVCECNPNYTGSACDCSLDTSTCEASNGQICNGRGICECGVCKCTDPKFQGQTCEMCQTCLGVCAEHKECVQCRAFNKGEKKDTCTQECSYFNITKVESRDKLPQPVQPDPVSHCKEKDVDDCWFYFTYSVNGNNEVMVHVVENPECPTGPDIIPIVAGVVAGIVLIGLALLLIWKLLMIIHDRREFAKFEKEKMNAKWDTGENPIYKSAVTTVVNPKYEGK

T1 sequence (P08648 42-894 limits assumed): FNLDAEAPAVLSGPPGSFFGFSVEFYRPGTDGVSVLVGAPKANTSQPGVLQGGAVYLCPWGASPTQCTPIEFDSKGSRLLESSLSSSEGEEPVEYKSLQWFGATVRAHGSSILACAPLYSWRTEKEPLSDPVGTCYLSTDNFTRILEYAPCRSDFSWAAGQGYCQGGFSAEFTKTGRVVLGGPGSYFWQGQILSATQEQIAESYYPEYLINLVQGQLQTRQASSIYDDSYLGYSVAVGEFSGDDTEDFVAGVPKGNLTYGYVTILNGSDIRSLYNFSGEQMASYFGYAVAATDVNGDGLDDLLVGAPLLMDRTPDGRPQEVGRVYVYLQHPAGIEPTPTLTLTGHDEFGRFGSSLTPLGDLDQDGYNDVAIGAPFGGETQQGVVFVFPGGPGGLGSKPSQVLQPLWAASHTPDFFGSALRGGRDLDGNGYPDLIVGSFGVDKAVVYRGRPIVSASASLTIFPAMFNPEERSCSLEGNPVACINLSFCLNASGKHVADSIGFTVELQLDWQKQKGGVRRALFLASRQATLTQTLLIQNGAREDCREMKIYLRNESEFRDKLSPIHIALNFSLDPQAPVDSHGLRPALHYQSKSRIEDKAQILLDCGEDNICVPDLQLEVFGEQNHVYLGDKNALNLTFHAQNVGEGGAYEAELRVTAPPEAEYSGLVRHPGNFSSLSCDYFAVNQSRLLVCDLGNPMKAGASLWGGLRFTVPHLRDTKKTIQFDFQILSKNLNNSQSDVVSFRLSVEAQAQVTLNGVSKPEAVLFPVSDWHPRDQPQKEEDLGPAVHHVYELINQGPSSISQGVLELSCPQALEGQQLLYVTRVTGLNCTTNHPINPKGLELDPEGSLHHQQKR
T1 sequence (P08648 895-1049 limits assumed): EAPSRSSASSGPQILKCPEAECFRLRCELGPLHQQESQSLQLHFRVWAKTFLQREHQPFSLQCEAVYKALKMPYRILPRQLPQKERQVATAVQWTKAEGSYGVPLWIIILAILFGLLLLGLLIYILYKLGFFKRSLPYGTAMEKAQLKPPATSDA
T1 sequence (P05556 21-798): as the sequence (P05556 21-798, chain 2 of 2) above
Sequence of α4β1 integrin (P13612 34-1032): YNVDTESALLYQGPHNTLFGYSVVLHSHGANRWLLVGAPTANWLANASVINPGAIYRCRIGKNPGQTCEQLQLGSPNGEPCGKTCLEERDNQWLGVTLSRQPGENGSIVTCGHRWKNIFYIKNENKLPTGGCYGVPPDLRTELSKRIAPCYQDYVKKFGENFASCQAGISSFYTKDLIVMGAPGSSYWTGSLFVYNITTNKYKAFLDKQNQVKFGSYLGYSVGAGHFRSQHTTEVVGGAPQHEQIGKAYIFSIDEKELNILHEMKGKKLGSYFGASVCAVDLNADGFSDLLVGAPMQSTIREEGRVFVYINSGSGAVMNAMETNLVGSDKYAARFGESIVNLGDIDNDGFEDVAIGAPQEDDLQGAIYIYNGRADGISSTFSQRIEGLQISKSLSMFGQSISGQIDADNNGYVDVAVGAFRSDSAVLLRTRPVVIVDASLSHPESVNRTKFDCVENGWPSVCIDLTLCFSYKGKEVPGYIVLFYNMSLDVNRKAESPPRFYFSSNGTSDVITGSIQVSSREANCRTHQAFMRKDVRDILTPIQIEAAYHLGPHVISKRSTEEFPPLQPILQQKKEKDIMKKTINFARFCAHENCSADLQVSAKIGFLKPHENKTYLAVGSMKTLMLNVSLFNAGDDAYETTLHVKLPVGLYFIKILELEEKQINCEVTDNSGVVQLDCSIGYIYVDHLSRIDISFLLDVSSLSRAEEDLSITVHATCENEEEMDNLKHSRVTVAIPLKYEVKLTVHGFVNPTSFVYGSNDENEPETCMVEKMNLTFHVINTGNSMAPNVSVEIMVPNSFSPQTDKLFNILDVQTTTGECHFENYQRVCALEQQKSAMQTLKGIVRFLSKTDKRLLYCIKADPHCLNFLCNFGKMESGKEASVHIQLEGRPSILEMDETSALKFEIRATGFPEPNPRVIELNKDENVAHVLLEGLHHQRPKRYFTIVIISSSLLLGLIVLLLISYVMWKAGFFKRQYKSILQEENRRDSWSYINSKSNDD
Sequence of α4β1 integrin (P05556 21-798): as the sequence (P05556 21-798, chain 2 of 2) above

Row | Molecule | inhibition of adhesion of 8A2 stimulated Ramos cells to IIICS-GST (α4β1 integrin) | also measured
1 | RPAPQRWIY (listed as Homo sapiens) [SEQ ID NO:20] | exhibit the capability of inhibiting β1 integrin subunit dependent adhesion; also recorded: inhibited cell adhesion | –
2 | WQPPRARVY (listed as Homo sapiens) [SEQ ID NO:29] | comparable to that of FN C/H V+Y | –
3 | WQPPRARYI (listed as Homo sapiens) [SEQ ID NO:36] | inactive | –
4 | PRARI (listed as Homo sapiens) [SEQ ID NO:39] | not PRARI was able to inhibit | –
5 | ARIY (listed as Homo sapiens) [SEQ ID NO:26] | comparable on an equimolar basis to that of Y-tagged FN C/H V | –
6 | WQPPDADIY (listed as Homo sapiens) [SEQ ID NO:38] | inhibits the 8A2 stimulated adhesion of Ramos cells at least as strongly as FN-C/H V+Y; also recorded: does not alter the ability of the peptide to inhibit β1 integrin subunit dependent adhesion | –
7 | PPRARIY (listed as Homo sapiens) [SEQ ID NO:23] | also exhibited α4β1 integrin dependent cell adhesion inhibition activity | –
8 | YIRARPPQW (not fully specified (some residues); listed as Homo sapiens) [SEQ ID NO:40] | – | inhibition of adhesion of 8A2 stimulated Ramos cells to IIICS-GST (α4β1 integrin; listed as retro inverso FN-C/H V+Y): Neither of these two compounds inhibited Ramos cell binding; inhibition of adhesion of 8A2 stimulated Ramos cells to IIICS-GST (α4β1 integrin; listed as retro-inverso FN-C/H V−Y): unable to inhibit adhesion
9 | RARITGYIY (listed as Homo sapiens) [SEQ ID NO:13] | exhibit the capability of inhibiting β1 integrin subunit dependent adhesion; also recorded: exhibited α4β1 integrin dependent cell adhesion inhibition | –
10 | ARITGYIIY (listed as Homo sapiens) [SEQ ID NO:14] | exhibit the capability of inhibiting β1 integrin subunit dependent adhesion; also recorded: most active peptide; also recorded: inhibited cell adhesion | –
11 | WQPPAARIY (listed as Homo sapiens) [SEQ ID NO:7] | capable of inhibiting β1 integrin dependent cell adhesion | –
12 | WQPPRARIW (listed as Homo sapiens) [SEQ ID NO:33] | comparable to that of FN C/H V+Y | –
13 | SPPRRARVTY (listed as Homo sapiens) [FN-C/H IV+Y] | – | inhibition of leukocyte adhesion to fibronectin in vitro [1]: inhibit leukocyte adhesion to fibronectin in vitro
14 | WQPIYPRAR (listed as Homo sapiens) [SEQ ID NO:35] | inactive | –
15 | QPPRARIY (listed as Homo sapiens) [SEQ ID NO:22] | also exhibited α4β1 integrin dependent cell adhesion inhibition activity | –
16 | WQPPRARIF (listed as Homo sapiens) [SEQ ID NO:32] | comparable to that of FN C/H V+Y | –
17 | WQPPRARLY (listed as Homo sapiens) [SEQ ID NO:28] | comparable to that of FN C/H V+Y | –
18 | AQPPRARIY (listed as Homo sapiens) [SEQ ID NO:3] | capable of inhibiting β1 integrin dependent cell adhesion | –
19 | WAPPRARIY (listed as Homo sapiens) [SEQ ID NO:4] | capable of inhibiting β1 integrin dependent cell adhesion | –
20 | IYWQPPRAR (listed as Homo sapiens) [SEQ ID NO:34] | inactive | –
21 | N=C(N)NCCC[C@H](N)C(=O)NCC(=O)N[C@@H](CC(=O)O)C(=O)O [RGD, reference compound] | – | inhibition of K562 adhesion to FN at the maximal concentration tested (α5β1 integrin [2]): completely inhibited
22 | RPQIPWARY (listed as Homo sapiens) [SEQ ID NO:2] | did not inhibit cell adhesion | inhibition of M14#5 cell adhesion to laminin (α2β1 and α3β1 integrin; laminin coated substrate): has no effect; inhibition of M14#5 cell adhesion to type IV collagen (α2β1 and α3β1 integrin; type IV collagen coated substrate): has no effect
23 | PRARIY-OH [SEQ ID NO:24, PRARIY] | comparable on an equimolar basis to that of the 9 residue peptide, Y-tagged FN C/H V; also recorded: able to inhibit | inhibition of K562 adhesion to FN at the maximal concentration tested (α5β1 integrin [2]): completely inhibited; IC50 (α5β1 integrin [2]; K562 cells stimulated with 1 mM MnCl2, adhesion to FN, read-out: half-maximal inhibitory concentration): ~200 µM
24 | WQPPRARI (listed as Homo sapiens) [SEQ ID NO:37, reference compound] | also inactive | –
25 | RARIY (listed as Homo sapiens) [SEQ ID NO:25] | comparable on an equimolar basis to that of the 9 residue peptide, Y-tagged FN C/H V | –
26 | WQPPRAAIY (listed as Homo sapiens) [SEQ ID NO:8] | capable of inhibiting β1 integrin dependent cell adhesion | –
27 | all D-form of FN-C/H V+Y: all D-form of FN-C/H V+Y (SEQ ID NO:1) ([dW][dQ][dP][dP][dR][dA][dR][dI][dY]; listed as Homo sapiens) | Neither of these two compounds inhibited Ramos cell binding | inhibition of adhesion of 8A2 stimulated Ramos cells to IIICS-GST (α4β1 integrin; listed as D-amino acid FN-C/H V−Y): unable to inhibit adhesion
28 | PRQAWRPIY (listed as Homo sapiens) [SEQ ID NO:18] | exhibit the capability of inhibiting β1 integrin subunit dependent adhesion; also recorded: inhibited cell adhesion | –
29 | WQPPRARIY [FN-C/H V+Y] | – | half-maximal inhibitory concentration (K562 adhesion to FN) (α5β1 integrin [3]): 0.2 mM
30 | RIY | – | half-maximal inhibitory concentration (K562 adhesion to FN) (α5β1 integrin [3]): ~0.2 mM
